From patent US20080131510 come the findings set out here.

What is called Km is the substrate concentration at which the rate is half of its maximum. The Vmax is the top rate of the reaction or transport when substrate is in excess. The kcat is the maximal rate divided by the concentration of active sites.

The subject of data set [1] is Lys*-Ala-Gly-Leu-Leu-Cys (SEQ ID NO:32). Nature of the data set: peptide cleavage kinetics by HPLC, 10 nM activated MMP; the filing calls Km 'affinity or binding strength'.
The test system of data set [2] is Lys*-Pro-Ala-Gly-Leu-Leu-Gly-Cys (SEQ ID NO:2). The data set is described as above.
In data set [3] the test system is Lys*-Gly-Leu-Cys (SEQ ID NO:33). Described as above.
For data set [4], the system named is Lys*-Ala-Gly-Leu-Leu-Cys (SEQ ID NO:32).
The subject of data set [5] is Lys*-Pro-Ala-Gly-Leu-Leu-Gly-Cys (SEQ ID NO:2), pendant in PEG(8000)DA hydrogel and complexed with Pt.
In data set [6] the test system is Lys*-Pro-Ala-Gly-Leu-Leu-Gly-Cys (SEQ ID NO:2).
Data set [7] relates to Lys*-Gly-Leu-Cys (SEQ ID NO:33).

Chain of matrix metalloprotease-9 (MMP-9), activated (chain, as listed by the source): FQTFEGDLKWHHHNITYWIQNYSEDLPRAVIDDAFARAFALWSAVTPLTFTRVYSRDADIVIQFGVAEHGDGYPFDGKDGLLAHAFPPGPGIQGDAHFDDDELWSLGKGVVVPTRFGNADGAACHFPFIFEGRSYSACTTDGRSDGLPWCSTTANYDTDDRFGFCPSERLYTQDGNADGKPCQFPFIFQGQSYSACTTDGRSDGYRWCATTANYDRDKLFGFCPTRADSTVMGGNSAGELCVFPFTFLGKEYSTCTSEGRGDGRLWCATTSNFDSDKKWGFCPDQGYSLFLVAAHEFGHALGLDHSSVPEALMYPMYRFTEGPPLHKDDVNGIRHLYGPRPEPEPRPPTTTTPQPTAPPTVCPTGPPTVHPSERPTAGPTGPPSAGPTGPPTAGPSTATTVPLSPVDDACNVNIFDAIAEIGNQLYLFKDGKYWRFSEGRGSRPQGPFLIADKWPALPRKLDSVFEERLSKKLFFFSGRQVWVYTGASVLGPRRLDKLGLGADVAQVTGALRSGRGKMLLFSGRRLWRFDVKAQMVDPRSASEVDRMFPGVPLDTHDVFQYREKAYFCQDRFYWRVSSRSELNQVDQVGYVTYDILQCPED

Take “matrix metalloprotease-9 (MMP-9), activated”: the Michaelis constant (Km) in data set [1] stood at 160 µM; in data set [2], 400 µM; in data set [3], 600 µM. Further, the figures for the Kcat/Km in data set [4], in data set [6] and in data set [7] were 252 M⁻¹ s⁻¹, 24000 M⁻¹ s⁻¹ and 358 M⁻¹ s⁻¹, respectively. For the same substance, the Vmax was found to be 9.9e-10 M/s in data set [4], 2.4e-07 M/s in data set [6] and 5.3e-09 M/s in data set [7]. Moreover, the kcat is 0.04 s⁻¹ in data set [4], 9.6 s⁻¹ in data set [6] and 0.21 s⁻¹ in data set [7]. Also, in data set [5], the “release of cleaved fragment from the PEG(8000)DA hydrogels” value is “the addition of MMP-2 and MMP-9 showed a significantly higher release of cleaved fragment from the PEG(8000)DA hydrogels compared to the control”.
